Source: FireProtDB (doi:10.1093/protein/14.12.967)
“And” between values parts separate entries of the source, which are not always exact repeats. Equal entries are not always repeated.

Conditions: Canis lupus familiaris, Thermal, DSC, reversible: yes, whole UniProt chain shown
[1] = pH 1.95, glycine hydrochloride 50 mM, transition: 3
[2] = pH 4.5, 66.4 °C, sodium acetate 50 mM

B1: Lysozyme C, milk isozyme wild type, P81708 (protein)
chain: KIFSKCELARKLKSMGMDGFHGYSLANWVCMAEYESNFNTQAFNGRNSNGSSDYGIFQLNSKWWCKSNSHSSANACNIMCSKFLDDNIDDDIACAKRVVKDPNGMSAWVAWVKHCKGKDLSKYLASCNL
Tm [1]: 60 °C | unfolding enthalpy (calorimetric) [1]: 29.6 kcal/mol | unfolding enthalpy (calorimetric) (pH 2.74, glycine hydrochloride 50 mM, transition: 3): 21.3 kcal/mol and 37.8 kcal/mol | unfolding enthalpy (calorimetric) (pH 3, glycine hydrochloride 50 mM, transition: 3): 31.8 kcal/mol and 36.9 kcal/mol | unfolding enthalpy (calorimetric) (pH 3.24, glycine hydrochloride 50 mM, transition: 3): 35.6 kcal/mol and 43 kcal/mol | unfolding enthalpy (calorimetric) (pH 3.46, glycine hydrochloride 50 mM, transition: 3): 37.7 kcal/mol and 42 kcal/mol | unfolding enthalpy (calorimetric) [2]: 30.9 kcal/mol | unfolding free energy [2]: 2.15 kcal/mol | unfolding enthalpy (calorimetric) (pH 4.5, sodium acetate 50 mM, CaCl2 10 mM, transition: 3): 67.4 kcal/mol and 44.4 kcal/mol | unfolding enthalpy (calorimetric) (pH 4.5, sodium acetate 50 mM, transition: 3): 42.1 kcal/mol and 44.4 kcal/mol
